doi:10.1101/2021.04.12.439405 (bioRxiv, 2021)

Assays:
[1] = target: T1, MukB-His (wild type MukB) (E. coli, UniProt P22523 1-1486); test: native MS
T1 sequence (looked up): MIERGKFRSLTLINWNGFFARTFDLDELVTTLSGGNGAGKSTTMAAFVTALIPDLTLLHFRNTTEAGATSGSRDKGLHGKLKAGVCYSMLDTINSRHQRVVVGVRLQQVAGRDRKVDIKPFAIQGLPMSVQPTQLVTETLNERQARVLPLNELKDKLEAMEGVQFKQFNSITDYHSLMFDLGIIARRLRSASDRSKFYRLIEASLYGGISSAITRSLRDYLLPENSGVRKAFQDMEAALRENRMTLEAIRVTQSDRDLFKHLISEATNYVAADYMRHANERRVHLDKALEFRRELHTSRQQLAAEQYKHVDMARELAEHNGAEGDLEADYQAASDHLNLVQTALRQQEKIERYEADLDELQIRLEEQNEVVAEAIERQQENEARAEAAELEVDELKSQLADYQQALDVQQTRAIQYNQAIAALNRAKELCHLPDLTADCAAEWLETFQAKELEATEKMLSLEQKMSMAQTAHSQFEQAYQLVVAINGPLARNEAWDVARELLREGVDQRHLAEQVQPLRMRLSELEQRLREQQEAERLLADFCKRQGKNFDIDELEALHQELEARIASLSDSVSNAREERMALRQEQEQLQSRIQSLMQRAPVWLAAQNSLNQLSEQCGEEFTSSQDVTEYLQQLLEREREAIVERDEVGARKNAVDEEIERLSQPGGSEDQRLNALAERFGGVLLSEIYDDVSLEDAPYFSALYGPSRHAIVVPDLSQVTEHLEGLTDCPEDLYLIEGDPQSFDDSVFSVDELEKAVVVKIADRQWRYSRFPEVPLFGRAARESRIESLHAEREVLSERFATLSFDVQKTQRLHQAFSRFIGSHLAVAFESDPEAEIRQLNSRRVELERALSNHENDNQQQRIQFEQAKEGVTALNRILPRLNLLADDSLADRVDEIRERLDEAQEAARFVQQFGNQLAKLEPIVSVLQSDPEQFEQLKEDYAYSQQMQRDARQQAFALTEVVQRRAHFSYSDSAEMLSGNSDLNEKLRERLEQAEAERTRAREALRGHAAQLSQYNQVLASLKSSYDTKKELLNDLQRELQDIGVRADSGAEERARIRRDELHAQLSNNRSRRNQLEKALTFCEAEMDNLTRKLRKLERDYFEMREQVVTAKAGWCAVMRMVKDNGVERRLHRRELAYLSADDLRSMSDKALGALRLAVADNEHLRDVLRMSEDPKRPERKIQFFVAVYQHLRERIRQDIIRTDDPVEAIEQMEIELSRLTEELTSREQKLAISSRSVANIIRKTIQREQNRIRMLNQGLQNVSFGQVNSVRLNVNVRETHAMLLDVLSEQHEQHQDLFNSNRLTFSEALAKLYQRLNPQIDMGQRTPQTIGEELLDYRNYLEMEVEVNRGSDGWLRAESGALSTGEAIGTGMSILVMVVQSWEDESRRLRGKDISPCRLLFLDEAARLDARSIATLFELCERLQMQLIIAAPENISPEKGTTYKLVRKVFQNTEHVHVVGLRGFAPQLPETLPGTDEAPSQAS

native MS = target: the molecule itself; test: native MS

- binding result [1]: binds
B1: His-MukF (natural protein, E. coli, UniProt P60293 1-440, looked up)
chain: MSEFSQTVPELVAWARKNDFSISLPVDRLSFLLAVATLNGERLDGEMSEGELVDAFRHVSDAFEQTSETIGVRANNAINDMVRQRLLNRFTSEQAEGNAIYRLTPLGIGITDYYIRQREFSTLRLSMQLSIVAGELKRAADAAEEGGDEFHWHRNVYAPLKYSVAEIFDSIDLTQRLMDEQQQQVKDDIAQLLNKDWRAAISSCELLLSETSGTLRELQDTLEAAGDKLQANLLRIQDATMTHDDLHFVDRLVFDLQSKLDRIISWGQQSIDLWIGYDRHVHKFIRTAIDMDKNRVFAQRLRQSVQTYFDEPWALTYANADRLLDMRDEEMALRDEEVTGELPEDLEYEEFNEIREQLAAIIEEQLAVYKTRQVPLDLGLVVREYLSQYPRARHFDVARIVIDQAVRLGVAQADFTGLPAKWQPINDYGAKVQAHVIDKY
- binding result (native MS): binds
